Results reported in IntAct's records for PubMed 22270917.

B1: Focal adhesion kinase 1 (Homo sapiens), Q05397 (parent)
chain: MAAAYLDPNLNHTPNSSTKTHLGTGMERSPGAMERVLKVFHYFESNSEPTTWASIIRHGDATDVRGIIQKIVDSHKVKHVACYGFRLSHLRSEEVHWLHVDMGVSSVREKYELAHPPEEWKYELRIRYLPKGFLNQFTEDKPTLNFFYQQVKSDYMLEIADQVDQEIALKLGCLEIRRSYWEMRGNALEKKSNYEVLEKDVGLKRFFPKSLLDSVKAKTLRKLIQQTFRQFANLNREESILKFFEILSPVYRFDKECFKCALGSSWIISVELAIGPEEGISYLTDKGCNPTHLADFTQVQTIQYSNSEDKDRKGMLQLKIAGAPEPLTVTAPSLTIAENMADLIDGYCRLVNGTSQSFIIRPQKEGERALPSIPKLANSEKQGMRTHAVSVSETDDYAEIIDEEDTYTMPSTRDYEIQRERIELGRCIGEGQFGDVHQGIYMSPENPALAVAIKTCKNCTSDSVREKFLQEALTMRQFDHPHIVKLIGVITENPVWIIMELCTLGELRSFLQVRKYSLDLASLILYAYQLSTALAYLESKRFVHRDIAARNVLVSSNDCVKLGDFGLSRYMEDSTYYKASKGKLPIKWMAPESINFRRFTSASDVWMFGVCMWEILMHGVKPFQGVKNNDVIGRIENGERLPMPPNCPPTLYSLMTKCWAYDPSRRPRFTELKAQLSTILEEEKAQQEERMRMESRRQATVSWDSGGSDEAPPKPSRPGYPSPRSSEGFYPSPQHMVQTNHYQVSGYPGSHGITAMAGSIYPGQASLLDQTDSWNHRPQEIAMWQPNVEDSTVLDLRGIGQVLPTHLMEERLIRQQQEMEEDQRWLEKEERFLKPDVRLSRGSIDREDGSLQGPIGNQHIYQPVGKPDPAAPPKKPPRPGAPGHLGSLASLSSPADSYNEGVKLQPQEISPPPTANLDRSNDKVYENVTGLVKAVIEMSSKIQPAPPEEYVPMVKEVGLALRTLLATVDETIPLLPASTHREIEMAQKLLNSDLGELINKMKLAQQYVMTSLQQEYKKQMLTAAHALAVDAKNLLDVIDQARLKMLGQTRPH

Variants of: B1
Details: with tln1_chick TLN1, P54939
Chain of tln1_chick TLN1, P54939 (P54939 whole entry): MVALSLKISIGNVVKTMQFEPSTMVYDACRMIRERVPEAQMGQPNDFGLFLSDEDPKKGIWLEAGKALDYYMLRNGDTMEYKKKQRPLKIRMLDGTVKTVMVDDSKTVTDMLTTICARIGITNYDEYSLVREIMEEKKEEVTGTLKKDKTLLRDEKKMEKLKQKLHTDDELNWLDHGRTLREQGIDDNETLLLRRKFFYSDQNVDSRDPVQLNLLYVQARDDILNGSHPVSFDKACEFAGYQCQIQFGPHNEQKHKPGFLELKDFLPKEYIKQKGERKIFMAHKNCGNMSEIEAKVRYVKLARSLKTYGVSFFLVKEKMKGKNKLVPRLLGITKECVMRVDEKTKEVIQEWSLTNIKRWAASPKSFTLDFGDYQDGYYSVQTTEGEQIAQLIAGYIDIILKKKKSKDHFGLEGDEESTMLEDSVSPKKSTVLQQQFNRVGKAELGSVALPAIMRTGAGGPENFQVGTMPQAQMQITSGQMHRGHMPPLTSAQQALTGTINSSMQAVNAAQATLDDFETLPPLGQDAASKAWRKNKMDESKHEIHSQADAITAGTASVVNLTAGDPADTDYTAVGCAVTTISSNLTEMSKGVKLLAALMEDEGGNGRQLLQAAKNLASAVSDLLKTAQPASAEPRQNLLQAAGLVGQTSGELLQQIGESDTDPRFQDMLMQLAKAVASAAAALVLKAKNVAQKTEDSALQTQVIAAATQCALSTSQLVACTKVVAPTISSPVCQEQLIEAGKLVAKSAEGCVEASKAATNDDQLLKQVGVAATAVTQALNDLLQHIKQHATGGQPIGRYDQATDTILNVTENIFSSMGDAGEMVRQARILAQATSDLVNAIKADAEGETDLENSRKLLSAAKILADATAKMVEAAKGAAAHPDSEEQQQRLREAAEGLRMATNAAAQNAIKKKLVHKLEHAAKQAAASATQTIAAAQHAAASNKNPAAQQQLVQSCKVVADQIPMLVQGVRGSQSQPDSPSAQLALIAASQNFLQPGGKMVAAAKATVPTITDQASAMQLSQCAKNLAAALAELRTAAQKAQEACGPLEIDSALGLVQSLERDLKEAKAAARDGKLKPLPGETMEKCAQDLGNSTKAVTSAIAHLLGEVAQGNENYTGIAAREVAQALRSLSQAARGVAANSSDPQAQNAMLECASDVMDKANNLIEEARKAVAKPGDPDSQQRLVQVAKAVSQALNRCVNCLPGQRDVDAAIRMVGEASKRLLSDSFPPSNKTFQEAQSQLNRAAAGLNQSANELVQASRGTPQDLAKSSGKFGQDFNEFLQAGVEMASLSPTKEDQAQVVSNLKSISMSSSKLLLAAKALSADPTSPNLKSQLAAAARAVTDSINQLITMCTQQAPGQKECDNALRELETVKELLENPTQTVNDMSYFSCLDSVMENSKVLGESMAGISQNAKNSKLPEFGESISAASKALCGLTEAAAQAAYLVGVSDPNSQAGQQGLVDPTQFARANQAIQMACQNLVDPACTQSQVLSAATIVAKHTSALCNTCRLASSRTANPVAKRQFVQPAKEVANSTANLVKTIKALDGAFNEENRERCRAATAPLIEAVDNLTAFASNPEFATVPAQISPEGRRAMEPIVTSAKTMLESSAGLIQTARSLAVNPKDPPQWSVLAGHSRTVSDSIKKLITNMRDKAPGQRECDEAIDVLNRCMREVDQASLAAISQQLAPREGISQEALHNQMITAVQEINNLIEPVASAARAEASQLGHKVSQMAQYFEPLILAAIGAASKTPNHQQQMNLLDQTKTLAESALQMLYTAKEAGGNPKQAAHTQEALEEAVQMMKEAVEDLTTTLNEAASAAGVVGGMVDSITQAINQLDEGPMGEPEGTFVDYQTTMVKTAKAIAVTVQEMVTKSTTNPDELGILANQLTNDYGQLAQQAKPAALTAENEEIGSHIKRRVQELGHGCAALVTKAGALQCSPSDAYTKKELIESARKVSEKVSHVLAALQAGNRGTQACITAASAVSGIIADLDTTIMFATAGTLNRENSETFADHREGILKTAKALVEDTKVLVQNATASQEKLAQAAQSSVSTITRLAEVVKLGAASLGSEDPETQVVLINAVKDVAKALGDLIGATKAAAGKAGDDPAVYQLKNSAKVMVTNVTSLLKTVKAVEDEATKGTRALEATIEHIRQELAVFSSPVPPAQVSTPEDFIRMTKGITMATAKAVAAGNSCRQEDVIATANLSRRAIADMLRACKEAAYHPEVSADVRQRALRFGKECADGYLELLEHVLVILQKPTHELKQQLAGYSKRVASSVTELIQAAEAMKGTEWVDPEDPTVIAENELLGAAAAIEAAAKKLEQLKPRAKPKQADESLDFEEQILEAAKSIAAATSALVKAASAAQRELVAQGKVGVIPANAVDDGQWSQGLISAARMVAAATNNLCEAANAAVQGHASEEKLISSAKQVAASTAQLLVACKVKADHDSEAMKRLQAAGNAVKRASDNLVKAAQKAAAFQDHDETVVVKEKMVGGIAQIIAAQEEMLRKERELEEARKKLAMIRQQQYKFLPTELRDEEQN

| effect of a mutation on the interaction | Variant |
| --- | --- |
| disrupting interaction | E1015A |
